Measurements: patent US5674835, “Papillomaviral expression inhibitors” (New England Medical Center Hospitals, Inc.)

What was measured:
Settings in all cases: tags: 13 N-terminal amino acids of lambda cII; partially purified from E. coli N6405; chain copies: 2
[1] = biological target: T1, BPV-1 E2 C-terminal segment (cII-E2 fusion, pCOE2-1) (Bovine papillomavirus type 1, UniProt P03122 P03122:114-410); assay: competition; about 1000 times more effective competitor than N2; DNA immunoprecipitation
T1 chain: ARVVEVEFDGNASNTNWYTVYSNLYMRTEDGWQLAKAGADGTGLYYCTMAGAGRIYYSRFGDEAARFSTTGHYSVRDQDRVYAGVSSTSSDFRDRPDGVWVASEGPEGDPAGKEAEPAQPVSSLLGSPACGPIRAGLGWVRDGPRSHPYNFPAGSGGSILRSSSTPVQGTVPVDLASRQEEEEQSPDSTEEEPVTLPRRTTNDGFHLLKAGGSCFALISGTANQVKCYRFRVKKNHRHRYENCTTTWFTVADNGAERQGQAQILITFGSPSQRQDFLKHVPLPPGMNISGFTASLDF

[2] = biological target: T1, BPV-1 E2 C-terminal segment (cII-E2 …); assay: competition; single strand did not block immunoprecipitation of dsDNA
[3] = biological target: T1, BPV-1 E2 C-terminal segment (cII-E2 …); assay: competition; relative to N1; no consensus site

B1: 23 bp URR fragment with E2 site IIIb (dsDNA)
DNA 1: CGTCAAACCGTCTTCGGTGCTC
DNA 2: GAGCACCGAAGACGGTTTGACG
binding signal [1]: ~1000 fold

B2: single-stranded oligonucleotide without E2 site (ssDNA)
DNA: GCGCATAATCAGCTTAATTGGTG
binding result [2]: no binding

B3: 23 bp fragment without E2 site (dsDNA)
DNA 1: GCGCATAATCAGCTTAATTGGTG
DNA 2: CACCAATTAAGCTGATTATGCGC
binding signal [3]: ~0.001 fold

B4: single-stranded oligonucleotide with site IIIb (ssDNA)
DNA: CGTCAAACCGTCTTCGGTGCTC
binding result [2]: no binding
